The results in this text go back to patent US7429563B2, “Peptide carrier for drug delivery” (The Board of Trustees of the University of Illinois, priority 2004, dated 2008).

Entries after “also recorded” stand apart in the source; their conditions may differ.

One series relates to BLMVEC monolayers. Description: Transendothelial 125I-MPO permeability, Transwell filters. Format: cell-based, bovine. As to the method: FIG. 2A-FIG. 2C: Albumin increases the binding of ^125I-MPO to endothelial cell surface. The binding of ^125I-MPO to BLMVEC was measured as described in Example 1. Results are shown as mean SEM of three separate experiments made in a triplicate binding assay. *, indicates difference from control (p<0.05); **, (p<0.001) different from control (i.e., binding was determined in the presence of 5 mg/ml γ-globulin). […] FIG. 2B: Effects of albumin on time course transendothelial transport of MPO. BLMVEC grown on microporous Transwell filters were used to determine transendothelial transport of MPO as described in Example 1. […] The transendothelial ^125I-MPO clearance rate was calculated as described (24, 27). *, indicates difference from control or CD-treated group (p<0.001). […] Lung preparations were perfused at 37° C. with Krebs-albumin solutions at the indicated concentrations; MPO PS (μl/min/g wet lung) was determined by perfusing ^125I-MPO for 10 min, and removing vascular tracer with Krebs for 6 min and bound tracer with cold (12° C.) acetate buffer (pH 4.5) for 3 min. ^125I-MPO PS increased 2-fold upon increasing [BSA] from 0.05 to 0.4 g/100 ml. […]
Transendotlielial ^125I-MPO permeability: Transendothelial permeability of ^125I-MPO in BLMVEC monolayers was determined using Transwell filter units (24, 27). […]

Series [1] concerns BLMVEC. Briefly: MPO uptake and localization by confocal immunostaining. Format: cell-based, bovine. To be noted: for MPO staining (localization): 30 min 37° C. As to the method: FIG. 3A-FIG. 3E: Albumin induces the endocytosis of MPO in endothelial cells. BLMVEC grown on glass coverslips were incubated with buffer C for 12 h. Cells were then incubated with buffer C containing 25 nM MPO alone or in combination with Alexa-594 BSA (50 μg/ml) and unlabeled BSA (1 mg/ml) for 30 min at 37° C. Cells were washed 3×, fixed with 4% PFA in HBSS for 30 min at 22° C., and blocked with 5% goat serum in HBBS containing 0.1% Triton X-100 (blocking buffer) for 30 min at 22° C. After washing, the cells were incubated with anti-MPO Ab diluted (1:1000) in blocking buffer at 4° C. overnight. After washing 2×, cells were incubated with Alexa-488 labeled (green) secondary Ab in blocking buffer for 60 min at 4° C. Confocal images were obtained as described in Methods. […] There was a marked co-localization of […] (green) and Alexa-594 BSA (red) in merged image (yellow; right). FIG. 3B: Albumin induces the co-localization of MPO with cholera toxin subunit B (CTB) in endothelial cells. BLMVEC were grown as described in FIG. 3A. Cells were incubated with Alexa 488-CTB; (20 ug/ml), MPO (25 nM), and BSA (1 mg/ml) in buffer C for 30 min at 37° C. After this, cells were washed, fixed, permeabilized, and stained with anti-MPO Ab and AlexaA594 labeled secondary antibody. Cells were visualized by confocal microscopy after mounting. Confocal images of CTB (green-left panel) and anti-MPO Ab staining (red-middle panel) in vesicles are shown. […] There was marked merging in vesicles in the YZ projection image (far left panel) and single frame (X-Y) or single line (Y-Z and X-Z) images (left panel) observed in the presence of albumin compared to the green CTB-positive/MPO negative vesicles observed in the absence albumin (right and far right panels). […]
Immunostaining: Cellular localization of MPO, albumin, CTB (a caveolae marker), and caveolin-1 was determined by confocal microscopy (Minshall et al., J. Cell Biol., 150:1057-1069 (2000); John et al., Am. J. Physiol. Lung Cell Mol. Physiol., 284:L187-L196 (2003)). […] MPO uptake in BLMVEC was determined in the presence or absence of albumin or CTB. […]

The target of the next series is T1, HSA (Homo sapiens, UniProt P02768).
T1 construct: purchased Sigma (St. Louis, Mo.)
Description: 125I-HSA binding to MPO peptides immobilized on nitrocellulose (dot-blot). To be noted: immobilized peptide. The procedure:
^125I-labeling and binding of proteins: HSA and MPO were labeled with ^125I using IODO-GEN reagent from Pierce (Rockford, Ill.). ^125I HSA binding to the MPO peptides was determined by dot-blot analysis. Peptides were immobilized on nitrocellulose membranes and non-specific binding was blocked with bovine γ-globulin (2 mg/ml in PBS) for 1 h at 22° C. Membranes were washed 2× with PBS and incubated with ^125I-labeled HSA (0.3 pM) for 2 h at 22° C. Membranes were then washed 4× with PBS containing 0.05% Tween-20 (PBST) and autoradiography was performed. In some experiments, the membranes were directly counted to determine the membrane-associated radioactivity.
Peptides were immobilized on nitrocellulose membranes and then incubated with 1 ml of 0.3 μM ^125I-HSA in PBS for 2 h. Other details were described in Example 1. Non-specific binding was determined by incubating membranes with ^125I-HSA in the absence of any peptides. Results are shown mean±S.E. for three separate experiments made in triplicate.

The next series deals with albumin. Briefly: Albumin binding of ELKSLNPRWDGE, albumin from a variety of sources. To be noted: e.g., human, porcine, murine.
The test system of series [2] is BLMVEC. Description: 125I-MPO binding to endothelial cell surface. Format: cell-based, bovine. To be noted: increasing BSA 1-50 mg/ml in binding buffer; 4° C., 1 h. The procedure: (§1) FIG. 2A-FIG. 2C: Albumin increases the binding of ^125I-MPO to endothelial cell surface. The binding of ^125I-MPO to BLMVEC was measured as described in Example 1. Results are shown as mean SEM of three separate experiments made in a triplicate binding assay. *, indicates difference from control (p<0.05); **, (p<0.001) different from control (i.e., binding was determined in the presence of 5 mg/ml γ-globulin). […] FIG. 2B: Effects of albumin on time course transendothelial transport of MPO. BLMVEC grown on microporous Transwell filters were used to determine transendothelial transport of MPO as described in Example 1. To study the methyl-B-cyclodextrin (CD) effect, luminal chamber was incubated with 5.0 mM CD for 20 min prior to measuring ^125I-MPO permeability. […] The transendothelial ^125I-MPO clearance rate was calculated as described (24, 27). *, indicates difference from control or CD-treated group (p<0.001). […] Lung preparations were perfused at 37° C. with Krebs-albumin solutions at the indicated concentrations; MPO PS (μl/min/g wet lung) was determined by perfusing ^125I-MPO for 10 min, and removing vascular tracer with Krebs for 6 min and bound tracer with cold (12° C.) acetate buffer (pH 4.5) for 3 min. ^125I-MPO PS increased 2-fold upon increasing [BSA] from 0.05 to 0.4 g/100 ml. […]

The next series has as its system lung microvessels. Description: Pulmonary vascular 125I-MPO permeability x surface area (PS), isolated-perfused lung. Set-up: species or system rat. The procedure: as §1

As for “methyl-β-cyclodextrin [CD, reference compound]”, in the series with BLMVEC monolayers (CD 5.0 mM for 20 min), the “effect on transport of 125I-MPO in the presence of albumin” value is on record as “prevented the transport”. The “effect on albumin-induced MPO uptake” value in the series with BLMVEC [1] (5.0 mM CD for 20 min at 37° C.) is “prevented the albumin-induced MPO uptake”.
On to “GLATELGSLNPGWDGEGLYQEAGGIVGAMV [MPO-MT-peptide, mutant of MPO-WT-peptide, K and R replaced with G]”, for which the “binding to HSA (in words)” value with HSA is on record as “failed to bind”.
Regarding ELKSLNPRWDGE, the “ability to bind albumin from a variety of sources” value in the series on albumin is “able to bind to albumin from any of a variety of sources”.
Regarding EARKIV, the “binding to HSA (in words)” value in the series with HSA is reported as “no binding; also recorded: failed to bind”.

B1: MPO: MPO purified from human PMNs (Calbiochem), 125I-labeled for binding and permeability (protein, listed as Homo sapiens)
chain: MGVPFFSSLRCMVDLGPCWAGGLTAEMKLLLALAGLLAILATPQPSEGAAPAVLGEVDTSLVLSSMEEAKQLVDKAYKERRESIKQRLRSGSASPMELLSYFKQPVAATRTAVRAADYLHVALDLLERKLRSLWRRPFNVTDVLTPAQLNVLSKSSGCAYQDVGVTCPEQDKYRTITGMCNNRRSPTLGASNRAFVRWLPAEYEDGFSLPYGWTPGVKRNGFPVALARAVSNEIVRFPTDQLTPDQERSLMFMQWGQLLDHDLDFTPEPAARASFVTGVNCETSCVQQPPCFPLKIPPNDPRIKNQADCIPFFRSCPACPGSNITIRNQINALTSFVDASMVYGSEEPLARNLRNMSNQLGLLAVNQRFQDNGRALLPFDNLHDDPCLLTNRSARIPCFLAGDTRSSEMPELTSMHTLLLREHNRLATELKSLNPRWDGERLYQEARKIVGAMVQIITYRDYLPLVLGPTAMRKYLPTYRSYNDSVDPRIANVFTNAFRYGHTLIQPFMFRLDNRYQPMEPNPRVPLSRVFFASWRVVLEGGIDPILRGLMATPAKLNRQNQIAVDEIRERLFEQVMRIGLDLPALNMQRSRDHGLPGYNAWRRFCGLPQPETVGQLGTVLRNLKLARKLMEQYGTPNNIDIWMGGVSEPLKRKGRVGPLLACIIGTQFRKLRDGDRFWWENEGVFSMQQRQALAQISLPRIICDNTGITTVSKNNIFMSNSYPRDFVNCSTLPALNLASWREAS
modifications: 125I label
As to B1, the “binding of 125I-MPO to the endothelial cell surface” value in the series with BLMVEC [2] is reported as “increased the binding”. The “increase of transendothelial 125I-MPO permeability” value in the series with BLMVEC monolayers (in the presence of albumin, compared to γ-globulin (5 mg/ml)) is listed as “more than 2 fold”. In addition, the “MPO PS at higher BSA concentrations” value in the series with lung microvessels (BSA 0.25 and 0.4 g/100 ml) is reported as “did not increase further”. The “increase in 125I-MPO PS” value with lung microvessels (upon increasing [BSA] from 0.05 to 0.4 g/100 ml) is reported as 2 fold. Also, the “MPO staining (localization)” value is given as “markedly co-localized with albumin-containing vesicles” in the series on BLMVEC [1] (25 nM MPO plus 1 mg/ml BSA) and “observed only on the cell surface” in the series on BLMVEC [1] (25 nM MPO, absence of albumin).
